Assays:
[1] = molecular target: T1, FR (folate receptor) on IGROV-1 cells (Homo sapiens, UniProt P15328); assay: FR-binding affinity (KD) on FR-positive IGROV-1 cells; conditions: 1 h at 4° C., average of 3 experiments
T1 construct: FR-positive IGROV-1 cells (human ovarian carcinoma cell line); endogenous in cells; host or cells: IGROV-1 human ovarian carcinoma cells (provided by Dr. Gerrit Janssen, Free University Medical Center Amsterdam)
Procedure: The determination of the KD values was performed as previously reported (Deberle, L. M. et al; Bioconj Chem 2021, 32, p. 1617). FR-positive IGROV-1 cells (human ovarian carcinoma cell line, kindly provided by Dr. […] Janssen, Free University Medical Center Amsterdam, The Netherlands) were seeded in 48-well plates (2.5×10^5 cells/well) in 500 μL FFRPMI medium with supplements. The cells were incubated at 37° C. and 5% CO2 to allow cell adhesion overnight. The experiment was performed on ice using ice-cold medium and buffer solutions. After removal of the supernatant, the cells were rinsed once with PBS prior to the addition of FFRPMI medium without supplements (450 μL/well). The respective folate radioconjugate of the disclosure (20 MBq/nmol) was added to each well at variable concentrations (in the range of 0.1 to 500 nM, 50 μL per well). […] The IGROV-1 tumor cells were incubated for 1 h at 4° C. on a shaker, followed by removal of the supernatants and rinsing the cells twice with PBS. After lysis of the cells with NaOH solution (1 M, aq., 500 μL), the samples were counted for activity in a γ-counter (Wallac Wizard 1480, Perkin Elmer). The counts per minute (cpm) of the specific binding (determined by subtracting the cpm of the unspecific binding from the cpm of total binding), were plotted against the molar concentration of the added folate radioconjugates of the disclosure. […]

mouse albumin = test system: T2, mouse albumin; assay: in vitro; type: in vitro ADME; conditions: plasma
T2 construct: tissue Rockland Immunochemicals, Inc., USA; host or cells: mouse blood plasma
Procedure: (§1) Albumin-binding properties were determined in mouse and human blood plasma. The albumin-binding properties of the folate radioconjugates of the disclosure in mouse blood plasma (Rockland Immunochemicals, Inc., USA) and human blood plasma (Stiftung Blutspende SRK Aargau-Solothurn, Switzerland) were determined using an ultrafiltration method (Deberle, L. M. et al., Molecules 2020, 25, (11)). The amount of serum albumin in mouse (MSA) and human (HSA) blood plasma was defined as 550 μM and 800 μM, respectively, based on measurements using a dry chemistry analyzer (DRI-CHEM 4000i, FUJIFILM, Japan). The folate radioconjugates of the disclosure (50 MBq/nmol, ca. 300 kBq, 0.006 nmol in 15 μL) were added to samples of mouse and human blood plasma (150 μL), followed by incubation of the samples at 37° C. for 30 min. The samples were loaded on Amicon centrifugal filters (cut-off of 10 kDa; Merck Millipore) followed by centrifugation (14,000 rcf, 30 min, 4° C.) to allow the separation of the plasma-bound from the plasma-unbound (free) fractions of each sample. The inserts of the filter devices were inverted and centrifuged at 200 rcf for 3 min to recover the protein-bound fraction. The activity of the protein-bound fraction as well as the activity in the filtrate and in the filter unit were measured separately in a gamma-counter (Perkin Elmer, Wallac Wizard 1480). The percentage of radioconjugate bound to mouse and human albumin, respectively, was set in relation to the total activity measured (Table 4).

human albumin = test system: T3, human albumin; assay: in vitro; type: in vitro ADME; conditions: plasma
T3 construct: tissue Stiftung Blutspende SRK Aargau-Solothurn, Switzerland; host or cells: human blood plasma
Procedure: as §1

[2] = type: physicochemical; conditions: pH 7.4
Procedure: The n-octanol/PBS distribution coefficients (log D values) were determined for each folate radioconjugate of the disclosure in order to assess their hydrophilic/hydrophobic properties. The log D values of the folate radioconjugates of the disclosure (50 MBq/nmol) were determined as previously reported, after dilution in PBS pH 7.4 to obtain an activity concentration of 10 MBq/500 μL. A sample of each radiofolate (ca. 0.5 MBq, 25 μL, 0.01 nmol) was added to a mixture of 1475 μL PBS pH 7.4 and 1500 μL n-octanol. The vials were vortexed vigorously for 1 min followed by centrifugation for 6 min at 2500 rpm for phase separation. An aliquot was taken from each phase and measured in a gamma-counter (Perkin Elmer, Wallac Wizard 1480). The distribution coefficients were calculated as the logarithm of the ratio of counts per minute (cpm) measured in the n-octanol phase relative to the cpm measured in the PBS phase. The results were listed as mean±SD of the data obtained from 3 independent experiments, each performed with five replicates.

[3] = Radiolytic stability of the radioconjugates (HPLC); type: physicochemical; conditions: room temperature, PBS pH 7.4, 100 MBq/500 μL, relative to value at t0
Procedure: Radiolytic stability: After performing quality control of the radioconjugates (50 MBq/nmol) using HPLC (t0=0 h), the radioconjugates were diluted in PBS pH 7.4 to obtain an activity concentration of 100 MBq/500 μL. The radioconjugate dilutions were incubated at room temperature. The integrity of the radioconjugates was assessed after a 4 h and 24 h, respectively, using HPLC. The HPLC chromatograms were analyzed by determination of the peak area of the radiolabeled product, the released lutetium-177 as well as the degradation products of unknown structure. The quantity of the intact product was expressed as the percentage of the sum of integrated peak areas of the entire chromatogram and set into relation to the original value determined at to (radiochemical purity >95% set as 100%).

[4] = molecular target: folate receptor-alpha (FR) (Homo sapiens, UniProt P15328); conditions: background statement; cited from earlier work
folate receptor-alpha (FR), sequence (P15328 25-234, species assumed): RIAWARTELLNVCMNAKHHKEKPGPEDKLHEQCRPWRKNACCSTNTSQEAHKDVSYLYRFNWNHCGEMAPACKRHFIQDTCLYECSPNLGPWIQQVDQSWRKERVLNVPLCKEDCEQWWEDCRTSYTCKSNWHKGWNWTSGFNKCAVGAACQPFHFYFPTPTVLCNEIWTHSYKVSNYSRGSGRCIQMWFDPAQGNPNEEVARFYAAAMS

T1 sequence (P15328 25-234): as the sequence (P15328 25-234, species assumed) above

For `CN1c2c(nc(N)[nH]c2=O)NC[C@H]1CNc1ccc(C(=O)N[C@@H](CCC(=O)N[C@@H](CCCCNC(=O)CN2CCN(CC(=O)O)CCN(CC(=O)O)CCN(CC(=O)O)CC2)C(=O)N[C@@H](CCCCNC(=O)CCCCc2ccc(I)cc2)C(=O)O)C(=O)O)cc1` [[^177Lu]Lu-6R-RedFol-24, metal not drawn], the Kd [1] was 5.6 nM, the fraction unbound at 30 min, 0.036 µM (mouse albumin) was 0.27 and the fraction unbound at 30 min, 0.036 µM (human albumin) was 0.06. For the same molecule, the logD [2] was -3.5 ± 0.2, the “Intact radiolabeled product [%]” value ([3]; 4 h) was no less than 99% and the “Intact radiolabeled product [%]” value ([3]; 24 h) was no less than 99%.

For `CN1c2c(nc(N)[nH]c2=O)NC[C@@H]1CNc1ccc(C(=O)N[C@@H](CCC(=O)N[C@@H](CCCCNC(=O)CN2CCN(CC(=O)O)CCN(CC(=O)O)CCN(CC(=O)O)CC2)C(=O)N[C@@H](CCCCNC(=O)CCCCc2ccc(I)cc2)C(=O)O)C(=O)O)cc1` [[^177Lu]Lu-6S-RedFol-24, metal not drawn], the Kd [1] was 4.6 nM, the fraction unbound at 30 min, 0.036 µM (mouse albumin) was 0.26 and the fraction unbound at 30 min, 0.036 µM (human albumin) was 0.14. The logD [2] was -3.1 ± 0.1, the “Intact radiolabeled product [%]” value ([3]; 4 h) was no less than 99% and the “Intact radiolabeled product [%]” value ([3]; 24 h) was no less than 99%.

In the case of `CN1c2c(nc(N)[nH]c2=O)NCC1CNc1ccc(C(=O)N[C@@H](CCC(=O)O)C(=O)O)cc1` (stereo partly shown) [5-methyltetrahydrofolic acid], the “FR affinity (KD)” value [4] is listed as “nanomolar range”.
